# In publication PMC3909728:
# Test system: eVP35 IID WT (Ebola virus (EBOV))
# Assay: filter binding
substance,measurement,value
dsRNA,binding signal (fraction bound),< 0.3
